Measured values published in US20200256880A1, “Neuronal Assay Method Involving Calcineurin” (The Broad Institute, Inc., priority 2017, published 2020).
Like-named read-outs stand apart in the source and are kept apart here.

Tests used:
phosphorylated CNAα = target: T1, phosphorylated CNAα (Mus musculus, UniProt P63328); assay: Lambda phosphatase de-phosphorylation specificity test on membrane; assay type: binding; conditions: cortical neuron (15DIV) lysates on PVDF membrane, with or without cLTP
T1 construct: protein lysates from cortical neurons (15DIV), either 5 min post-cLTP induction or no cLTP control; endogenous in cells; host or cells: primary cortical neurons (15DIV)
Method: To further test the specificity of the murine monoclonal antibody for phosphorylated CNAα, de-phosphorylation experiments were performed using lambda phosphatase on protein fixed in a membrane. Specifically, protein lysates from cortical neurons (15DIV), either 5 min post-cLTP induction or no cLTP control, were separated by SDS-PAGE and subsequently transferred to a PVDF membrane. One section of the membrane was incubated overnight at room temperature with lambda phosphatase (FIG. 13, top panel, right blot), while another section was incubated under the same conditions without phosphatase (FIG. 13, top panel, left blot). Following these incubations, the phosphatase-treated and control membrane sections were incubated with the antibody and antibody binding was detected by chemiluminescence. […] As a loading control, the level of total CNAα was also assessed in both membranes sections after the incubations with or without phosphatase (bottom panel of the figure).

CNAα recombinant protein = assay: Western blot of CNAα recombinant protein WT, S469E and S462E/S469E with monoclonal antibody; assay type: binding
Method: The validation of the specificity of the antibody for pS469 was additionally determined by Western blot using CNAα recombinant protein WT (unphosphorylated), the phosphomimic mutant S469E (see examples above) and a double mutant with substitutions of E for S at both positions 462 and 469 (S462E/S469E). […] Levels of total CNAα were used as a loading control and were assessed after stripping of the membranes and incubation with anti-CNAα rabbit by chemiluminescence (bottom panel).

[1] = tested on: phospho-S469 CNAα in rat hippocampal neurons; assay type: cell-based
[2] = listed as monoclonal murine anti-S469 CNAα phosphospecific antibody

| Molecule | recognition of CNAα with or without lambda phosphatase treatment (phosphorylated CNAα; listed as monoclonal antibody) | recognition of CNAα with or without lambda phosphatase treatment (phosphorylated CNAα; listed as monoclonal murine anti-S469 phosphospecific antibody) | recognition of double mutant S462E/S469E (CNAα recombinant protein) | recognition of recombinant protein S469E (CNAα recombinant protein) | recognition of wild-type unphosphorylated CNAα recombinant protein (CNAα recombinant protein) | recognition of double mutant S462E/S469E (CNAα recombinant protein; [2]) | recognition of recombinant protein S469E (CNAα recombinant protein; [2]) | recognition of wild-type unphosphorylated CNAα recombinant protein (CNAα recombinant protein; [2]) | levels of phospho-S469 CNAα within dendrites [1] |
| --- | --- | --- | --- | --- | --- | --- | --- | --- | --- |
| monoclonal mouse anti-pS469 CNAα antibody: monoclonal mouse antibody with the heavy and light chain variable regions listed in the Sequence Table (antibody, V domains shown) VH: EVQLQQSGAELVRPGASVKLSCTASDFNIKDTYIHWLKQRPEQGLEWIGRIDPANSNPKYDPNFQGKATITTDTSSNTAYLQLSSLTSDDTAVYYCTRRDYYGSGSWFAYWGQGTLVTVSS VL: DIVMTQAAPSVPVTPGESVSISCRSSKSLLHSNGNTYLYWFLQRPGQSPQLLIYRMSNLASGVPDRFSGSGSGTAFTLRINRVEAEDVGVYYCMQHLEYPLTFGAGTKLELK | only able to recognize CNAα in absence of lambda phosphatase treatment | eliminated phosphospecific antibody binding | recognition | recognizes | not | does recognize | does recognize | does not recognize | – |
| brain-derived neurotrophic factor (protein, UniProt P23560 19-247, looked up) Neurotrophic factor BDNF …: APMKEANIRGQGGLAYPGVRTHGTLESVNGPKAGSRGLTSLADTFEHVIEELLDEDQKVRPNEENNKDADLYTSRVMLSSQVPLEPPLLFLLEEYKNYLDAANMSMRVRRHSDPARRGELSVCDSISEWVTAADKKTAVDMSGGTVTVLEKVPVSKGQLKQYFYETKCNPMGYTKEGCRGIDKRHWNSQCRTTQSYVRALTMDSKKRIGWRFIRIDTSCVCTLTIKRGR | – | – | – | – | – | – | – | – | no change |
